Drawing on patent US20110053139A1, this text covers phase differential mass shift Δφ for one substance.

The target of test [1] is Herpes Simplex virus type 1 (HSV-1), purified virus. As to the kind of experiment: SH-SAW biosensor (325 MHz), 204-4 mAb; HSV-1 alone at 3.6×10^6/µl.
Test [2] deals with Coxsackie virus B4 (JVB strain) viral particles (Coxsackie virus B4 (JVB strain)) (UniProt P08292). As to the kind of experiment: SH-SAW biosensor (325 MHz), 204-4 mAb; Coxsackie B4 admixed with HSV-1 at equal concentration, low end of range.
Chain of UniProt P08292 (P08292 2-849): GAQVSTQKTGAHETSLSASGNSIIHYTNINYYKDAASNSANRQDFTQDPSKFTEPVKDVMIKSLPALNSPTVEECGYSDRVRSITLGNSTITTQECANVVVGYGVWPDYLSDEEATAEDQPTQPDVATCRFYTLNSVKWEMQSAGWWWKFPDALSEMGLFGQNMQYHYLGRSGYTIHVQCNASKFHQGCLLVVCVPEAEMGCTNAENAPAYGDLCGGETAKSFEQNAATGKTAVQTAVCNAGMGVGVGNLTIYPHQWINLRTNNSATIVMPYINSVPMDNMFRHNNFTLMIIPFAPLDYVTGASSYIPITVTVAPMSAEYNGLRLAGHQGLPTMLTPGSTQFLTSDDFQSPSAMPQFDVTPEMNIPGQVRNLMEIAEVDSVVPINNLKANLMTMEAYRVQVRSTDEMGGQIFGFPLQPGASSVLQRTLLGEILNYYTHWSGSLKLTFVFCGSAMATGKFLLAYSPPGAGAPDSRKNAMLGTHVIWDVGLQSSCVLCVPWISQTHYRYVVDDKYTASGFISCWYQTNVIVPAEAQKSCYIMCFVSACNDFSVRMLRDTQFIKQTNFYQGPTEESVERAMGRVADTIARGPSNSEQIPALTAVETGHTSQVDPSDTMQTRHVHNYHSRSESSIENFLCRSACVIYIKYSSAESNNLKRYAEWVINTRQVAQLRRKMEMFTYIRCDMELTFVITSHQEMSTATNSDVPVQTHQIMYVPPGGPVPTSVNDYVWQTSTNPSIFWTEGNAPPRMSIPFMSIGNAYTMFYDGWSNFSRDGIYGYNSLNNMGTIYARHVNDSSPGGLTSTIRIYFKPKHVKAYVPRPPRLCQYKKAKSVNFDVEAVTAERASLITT
The target is the same in test [3].
For test [4] the target is unchanged. As to the kind of experiment: SH-SAW biosensor (325 MHz), 204-4 mAb; Coxsackie B4 admixed with HSV-1 at equal concentration, high end of range.

Like-named read-outs stand apart in the source and are kept apart here.

Take “IgG2a isotype monoclonal antibody (mAb) directed against the JVB strain of Coxsackie virus B4, produ”: the phase differential mass shift Δφ in test [1] was 0.64 degrees; in test [2] it was 1.09 degrees; in test [3] it was 0.95 to 6.99 degrees; in test [4], 7.24 degrees.
